From patent US20260234222A1 (LEYDEN LABORATORIES B V, published 2026) come the findings set out here.

Experiment [1] addresses T1, SARS-CoV-1 Spike antigen (SARS-CoV-1, UniProt P59594 14-1190). The experiment can be described thus: cell-based or functional assay.
Experiment [2] deals with T2, MERS-CoV Spike antigen (MERS-CoV, UniProt K9N5Q8 18-1291).
T2 sequence: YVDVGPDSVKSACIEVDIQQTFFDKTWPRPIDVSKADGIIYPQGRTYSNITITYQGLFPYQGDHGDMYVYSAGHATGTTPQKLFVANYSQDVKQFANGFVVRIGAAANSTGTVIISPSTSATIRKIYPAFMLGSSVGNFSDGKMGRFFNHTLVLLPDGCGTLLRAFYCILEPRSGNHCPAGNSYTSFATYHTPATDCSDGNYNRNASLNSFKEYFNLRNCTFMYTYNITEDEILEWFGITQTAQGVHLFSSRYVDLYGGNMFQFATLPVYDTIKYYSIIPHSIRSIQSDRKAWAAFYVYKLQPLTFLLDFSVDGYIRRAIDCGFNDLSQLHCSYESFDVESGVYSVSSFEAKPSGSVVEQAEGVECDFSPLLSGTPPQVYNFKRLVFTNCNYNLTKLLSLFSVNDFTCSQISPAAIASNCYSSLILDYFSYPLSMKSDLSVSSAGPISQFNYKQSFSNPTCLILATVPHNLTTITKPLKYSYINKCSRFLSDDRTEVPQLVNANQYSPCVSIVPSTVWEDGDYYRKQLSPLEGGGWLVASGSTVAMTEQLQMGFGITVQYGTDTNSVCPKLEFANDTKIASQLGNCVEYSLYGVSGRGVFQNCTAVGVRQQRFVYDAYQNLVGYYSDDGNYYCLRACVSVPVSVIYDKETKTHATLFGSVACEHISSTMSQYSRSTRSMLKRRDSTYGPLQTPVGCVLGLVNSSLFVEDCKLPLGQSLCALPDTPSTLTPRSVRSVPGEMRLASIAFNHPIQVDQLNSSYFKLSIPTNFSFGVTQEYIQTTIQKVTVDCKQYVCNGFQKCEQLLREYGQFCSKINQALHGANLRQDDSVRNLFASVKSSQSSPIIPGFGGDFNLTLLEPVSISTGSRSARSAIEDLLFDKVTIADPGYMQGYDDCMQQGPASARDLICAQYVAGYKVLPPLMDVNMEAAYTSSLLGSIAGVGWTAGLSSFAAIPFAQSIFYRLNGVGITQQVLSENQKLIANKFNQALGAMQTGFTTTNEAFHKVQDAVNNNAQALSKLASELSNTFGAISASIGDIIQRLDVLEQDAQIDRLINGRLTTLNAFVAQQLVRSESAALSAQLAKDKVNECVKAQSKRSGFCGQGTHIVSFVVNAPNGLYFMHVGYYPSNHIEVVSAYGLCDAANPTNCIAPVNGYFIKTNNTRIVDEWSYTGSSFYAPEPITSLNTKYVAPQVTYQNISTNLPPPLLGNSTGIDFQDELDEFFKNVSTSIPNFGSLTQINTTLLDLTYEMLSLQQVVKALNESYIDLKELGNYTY
The experiment is described as follows: cell-based or functional assay.

In experiment [3] the target is T3, SARS-CoV-2 Spike antigen (SARS-CoV-2, UniProt P0DTC2 14-1208). The experiment is described as follows: cell-based or functional assay.
Experiment [4] concerns the target T1, SARS-CoV-1 Spike antigen. The experiment can be described thus: cell-based or functional assay. This is another data set of the same source.
The target of experiment [5] is T2, MERS-CoV Spike antigen. The experiment is described as follows: cell-based or functional assay. The source holds these as a separate data set.
The target in experiment [6] is T3, SARS-CoV-2 Spike antigen. The experiment is described as follows: cell-based or functional assay. This is another data set of the same source.
In experiment [7] the target is T1, SARS-CoV-1 Spike antigen. The experiment is described as follows: cell-based or functional assay. The source holds these as a separate data set.
The target of experiment [8] is T4, hCoV-NL63 Spike antigen (hCoV-NL63, UniProt Q6Q1S2 19-1291).
T4 sequence: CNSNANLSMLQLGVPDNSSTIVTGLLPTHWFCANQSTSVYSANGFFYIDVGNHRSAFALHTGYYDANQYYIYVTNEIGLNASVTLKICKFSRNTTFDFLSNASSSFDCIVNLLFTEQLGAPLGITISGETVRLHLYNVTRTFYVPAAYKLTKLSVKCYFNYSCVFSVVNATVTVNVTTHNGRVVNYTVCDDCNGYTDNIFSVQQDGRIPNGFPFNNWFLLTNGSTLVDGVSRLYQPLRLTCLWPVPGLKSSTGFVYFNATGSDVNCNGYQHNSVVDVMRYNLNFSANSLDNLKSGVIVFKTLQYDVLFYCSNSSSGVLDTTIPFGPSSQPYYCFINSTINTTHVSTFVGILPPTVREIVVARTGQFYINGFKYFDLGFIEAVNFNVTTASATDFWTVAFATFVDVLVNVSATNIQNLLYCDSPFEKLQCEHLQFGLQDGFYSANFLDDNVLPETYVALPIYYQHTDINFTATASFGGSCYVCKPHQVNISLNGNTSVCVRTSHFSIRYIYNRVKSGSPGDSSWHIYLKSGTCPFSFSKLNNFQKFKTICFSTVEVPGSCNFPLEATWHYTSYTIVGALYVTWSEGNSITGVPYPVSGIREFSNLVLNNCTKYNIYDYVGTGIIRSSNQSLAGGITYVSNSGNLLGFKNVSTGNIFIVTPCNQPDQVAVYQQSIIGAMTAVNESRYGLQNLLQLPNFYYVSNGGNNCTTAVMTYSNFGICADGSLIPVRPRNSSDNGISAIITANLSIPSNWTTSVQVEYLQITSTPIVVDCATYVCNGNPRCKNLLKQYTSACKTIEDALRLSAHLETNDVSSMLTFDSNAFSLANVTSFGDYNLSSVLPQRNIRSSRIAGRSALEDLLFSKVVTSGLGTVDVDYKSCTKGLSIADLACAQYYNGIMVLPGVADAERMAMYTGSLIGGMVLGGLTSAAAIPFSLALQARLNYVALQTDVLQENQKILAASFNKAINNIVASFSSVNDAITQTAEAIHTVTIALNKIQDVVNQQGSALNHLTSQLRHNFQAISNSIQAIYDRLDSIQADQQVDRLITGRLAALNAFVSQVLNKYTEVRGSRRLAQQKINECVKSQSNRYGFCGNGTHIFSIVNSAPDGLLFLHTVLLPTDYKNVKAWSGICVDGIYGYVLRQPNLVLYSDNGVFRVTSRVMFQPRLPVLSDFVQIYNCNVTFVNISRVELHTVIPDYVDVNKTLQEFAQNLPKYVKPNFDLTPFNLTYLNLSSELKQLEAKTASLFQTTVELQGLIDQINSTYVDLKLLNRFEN
The experiment can be described thus: cell-based or functional assay.

Experiment [9] has as its target T3, SARS-CoV-2 Spike antigen. The experiment can be described thus: cell-based or functional assay. The source holds these as a separate data set.
For experiment [10], the target named is T3, SARS-CoV-2 Spike antigen. The experiment is described as follows: cell-based or functional assay. The source holds these as a separate data set.
The target in experiment [11] is T4, hCoV-NL63 Spike antigen. The experiment can be described thus: ELISA, Spike antigen coated on plate.

Where two headings read alike, the source gives them in different places.

B1: Bispecific 1 (bispecific antibody)
heavy 1: not shown
light 1: EIVLTQSPGTLSLSPGERATLSCRASQSVRRNYFAWYQQKRGQAPRLLIYDASTRATGIPDRFSGSGSGTDFTLTISRLEPEDFAVYYCQQYDSSPPMYIFGQGTKLEIKSSASTKGPSVFPLAPSSKSTSGGTAALGCLVKDYFPEPVTVSWNSGALTSGVHTFPAVLQSSGLYSLSSVVTVPSSSLGTQTYICNVNHKPSNTKVDKKVEPKSC
heavy 2: not shown
light 2: QSALTQPPSASGSPGQSVTISCSGTSSDVGGYNFVSWYQHHPGKAPKILIYEVTKRPSGVPDRFSGSKSGNTASLTVSGLQAEDEADYYCSSYGGTNNLLFGGGTKLTVLGQPKAAPSVTLFPPSSEELQANKATLVCLISDFYPGAVTVAWKADSSPVKAGVETTTPSKQSNNKYAASSYLSLTPEQWKSHRSYSCQVTHEGSTVEKTVAPTECS
B1: the “Live virus neutralization IC50” value with SARS-CoV-1 Spike antigen [1] came out at 6.67 µg/mL; with MERS-CoV Spike antigen [2], 1.32 µg/mL.

B2: Parental mAb 2 (antibody, V domains shown)
VH: QMQLMQSGAEVKKPGASVTVSCKASGDTFSDYRIHWVRQAPGQGLEWMGRMNPKSGDTNFAQKFQGRVTMTRDMSINTAYMTLSGLTFDDTALYYCASLLIVGGFDPLDDFEVWGQGTMVTISS
VL: QSALTQPPSASGSPGQSVTISCSGTSSDVGGYNFVSWYQHHPGKAPKILIYEVTKRPSGVPDRFSGSKSGNTASLTVSGLQAEDEADYYCSSYGGTNNLLFGGGTKLTVL
B2: the “Live virus neutralization IC50” value came out at 5.94 µg/mL with SARS-CoV-1 Spike antigen [1] and 11.6 µg/mL in the experiment with MERS-CoV Spike antigen [2].

B3: Parental mAb 1 (antibody, V domains shown)
VH: QEQLVQSGAEVKKPGASVKVSCKSSGFTFSYFYLHWVRQAPGQGLEWMGIINPRGDGTRYAQKFQGRVTMTRDASTGTLYMELRSLRSEDTAVYYCARGADHGAFDIWGQGTMVTVSS
VL: EIVLTQSPGTLSLSPGERATLSCRASQSVRRNYFAWYQQKRGQAPRLLIYDASTRATGIPDRFSGSGSGTDFTLTISRLEPEDFAVYYCQQYDSSPPMYIFGQGTKLEIK
notes: also called antibody according to the invention; first parental antibody
With B3, the “Live virus neutralization IC50” value was 9.87 µg/mL in the experiment with SARS-CoV-2 Spike antigen [3]; 2.73 µg/mL with SARS-CoV-1 Spike antigen [4]; 1.49 µg/mL with MERS-CoV Spike antigen [5]; 6.44 µg/mL with SARS-CoV-2 Spike antigen [9]; 4.18 µg/mL with SARS-CoV-1 Spike antigen [1]; 0.86 µg/mL with MERS-CoV Spike antigen [2]. For the same molecule, the “Pseudovirion neutralization IC50” value was 0.072 µg/mL in the experiment with SARS-CoV-2 Spike antigen [6], 0.588 µg/mL with SARS-CoV-1 Spike antigen [7], over 250 µg/mL in the experiment with hCoV-NL63 Spike antigen [8] and 0.072 µg/mL with SARS-CoV-2 Spike antigen [10]. Also, in the experiment with hCoV-NL63 Spike antigen [11], the binding result is listed as “no binding (tested: 10.0-0.000002 nM)”.
